T1: Cas-alpha 10 variant M45S+F54D+G81E+G470D (synthetic construct, UniProt P0DW62 SEQ:1-497)
T1 chain: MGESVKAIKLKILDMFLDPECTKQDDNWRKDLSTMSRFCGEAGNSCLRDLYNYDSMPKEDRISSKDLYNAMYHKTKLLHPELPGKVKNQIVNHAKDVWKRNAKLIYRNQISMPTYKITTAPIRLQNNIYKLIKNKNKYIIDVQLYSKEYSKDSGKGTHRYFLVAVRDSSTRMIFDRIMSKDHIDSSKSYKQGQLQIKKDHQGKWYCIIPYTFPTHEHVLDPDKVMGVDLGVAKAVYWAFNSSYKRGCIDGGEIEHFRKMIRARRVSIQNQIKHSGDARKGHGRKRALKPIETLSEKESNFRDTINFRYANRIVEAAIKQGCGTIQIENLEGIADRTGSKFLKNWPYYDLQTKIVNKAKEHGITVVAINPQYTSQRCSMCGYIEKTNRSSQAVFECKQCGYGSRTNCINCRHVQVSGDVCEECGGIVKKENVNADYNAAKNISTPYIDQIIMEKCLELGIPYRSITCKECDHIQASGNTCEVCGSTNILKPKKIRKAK

T2: Cas-alpha 10 variant T34E+M45S+F54D+G81E+K85Q+G470D (synthetic construct, UniProt P0DW62 SEQ:1-497)
T2 chain: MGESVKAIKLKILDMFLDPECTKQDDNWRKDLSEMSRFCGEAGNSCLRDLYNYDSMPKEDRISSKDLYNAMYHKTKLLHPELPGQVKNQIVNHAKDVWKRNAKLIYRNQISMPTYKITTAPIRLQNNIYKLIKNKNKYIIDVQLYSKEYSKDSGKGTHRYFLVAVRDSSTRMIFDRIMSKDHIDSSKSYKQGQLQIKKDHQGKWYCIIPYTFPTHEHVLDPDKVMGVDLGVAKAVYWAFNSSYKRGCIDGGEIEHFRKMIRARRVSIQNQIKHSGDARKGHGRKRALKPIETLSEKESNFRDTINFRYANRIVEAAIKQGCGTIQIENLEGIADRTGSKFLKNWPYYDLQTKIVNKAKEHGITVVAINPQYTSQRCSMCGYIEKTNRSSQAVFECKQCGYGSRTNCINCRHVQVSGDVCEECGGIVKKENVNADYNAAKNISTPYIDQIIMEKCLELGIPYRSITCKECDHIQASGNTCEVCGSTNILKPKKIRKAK

T3: Cas-alpha 10 base variant (synthetic construct, UniProt P0DW62 SEQ:1-497)
T3 chain: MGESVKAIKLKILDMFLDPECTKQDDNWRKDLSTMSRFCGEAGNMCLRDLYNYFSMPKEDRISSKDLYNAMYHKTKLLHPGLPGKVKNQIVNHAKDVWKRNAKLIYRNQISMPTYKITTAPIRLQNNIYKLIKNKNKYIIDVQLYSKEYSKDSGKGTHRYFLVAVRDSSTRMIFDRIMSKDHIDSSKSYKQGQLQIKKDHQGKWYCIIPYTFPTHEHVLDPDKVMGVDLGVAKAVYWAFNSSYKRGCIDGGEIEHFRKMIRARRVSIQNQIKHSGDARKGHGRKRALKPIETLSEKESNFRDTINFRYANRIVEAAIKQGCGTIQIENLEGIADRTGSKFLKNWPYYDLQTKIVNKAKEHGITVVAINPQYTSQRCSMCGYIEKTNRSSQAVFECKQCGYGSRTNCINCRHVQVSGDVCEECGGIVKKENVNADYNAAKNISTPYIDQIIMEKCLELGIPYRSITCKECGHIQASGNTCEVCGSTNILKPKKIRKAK

T4: Cas-alpha 10 variant T34E+M45S+F54D+G81E+G470D (synthetic construct, UniProt P0DW62 SEQ:1-497)
T4 chain: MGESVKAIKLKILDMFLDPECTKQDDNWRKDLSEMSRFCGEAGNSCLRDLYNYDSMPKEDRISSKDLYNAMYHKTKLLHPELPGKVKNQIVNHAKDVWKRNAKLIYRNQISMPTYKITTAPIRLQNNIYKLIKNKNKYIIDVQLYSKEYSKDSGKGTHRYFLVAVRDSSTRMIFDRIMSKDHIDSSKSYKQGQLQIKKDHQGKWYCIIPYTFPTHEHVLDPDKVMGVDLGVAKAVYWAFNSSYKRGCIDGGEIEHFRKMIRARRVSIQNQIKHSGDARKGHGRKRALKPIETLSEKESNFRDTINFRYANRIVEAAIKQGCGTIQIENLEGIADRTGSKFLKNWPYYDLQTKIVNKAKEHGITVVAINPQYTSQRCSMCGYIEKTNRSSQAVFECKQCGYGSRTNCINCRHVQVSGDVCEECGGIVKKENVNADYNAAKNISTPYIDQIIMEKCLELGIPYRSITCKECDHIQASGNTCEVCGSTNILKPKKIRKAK

T5: Cas-alpha 10 variant M45S+F54D+G81E+K85Q+G470D (synthetic construct, UniProt P0DW62 SEQ:1-497)
T5 chain: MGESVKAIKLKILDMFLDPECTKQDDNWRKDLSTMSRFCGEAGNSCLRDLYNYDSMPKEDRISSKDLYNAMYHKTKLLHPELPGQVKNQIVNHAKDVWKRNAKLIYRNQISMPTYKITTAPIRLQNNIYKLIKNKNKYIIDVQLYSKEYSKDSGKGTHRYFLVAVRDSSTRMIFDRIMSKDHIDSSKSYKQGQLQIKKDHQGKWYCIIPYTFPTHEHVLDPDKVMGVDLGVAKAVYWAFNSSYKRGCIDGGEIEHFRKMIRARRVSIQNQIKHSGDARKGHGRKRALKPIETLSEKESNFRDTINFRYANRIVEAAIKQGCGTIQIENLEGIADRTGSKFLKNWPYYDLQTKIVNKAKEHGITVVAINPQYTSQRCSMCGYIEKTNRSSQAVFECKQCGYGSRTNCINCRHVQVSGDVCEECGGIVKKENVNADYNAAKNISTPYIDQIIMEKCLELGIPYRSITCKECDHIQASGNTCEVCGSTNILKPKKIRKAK

T6: Cas-alpha 10 wild type (Cas12f) (Syntrophomonas palmitatica, UniProt P0DW62 SEQ:1-497)
T6 sequence: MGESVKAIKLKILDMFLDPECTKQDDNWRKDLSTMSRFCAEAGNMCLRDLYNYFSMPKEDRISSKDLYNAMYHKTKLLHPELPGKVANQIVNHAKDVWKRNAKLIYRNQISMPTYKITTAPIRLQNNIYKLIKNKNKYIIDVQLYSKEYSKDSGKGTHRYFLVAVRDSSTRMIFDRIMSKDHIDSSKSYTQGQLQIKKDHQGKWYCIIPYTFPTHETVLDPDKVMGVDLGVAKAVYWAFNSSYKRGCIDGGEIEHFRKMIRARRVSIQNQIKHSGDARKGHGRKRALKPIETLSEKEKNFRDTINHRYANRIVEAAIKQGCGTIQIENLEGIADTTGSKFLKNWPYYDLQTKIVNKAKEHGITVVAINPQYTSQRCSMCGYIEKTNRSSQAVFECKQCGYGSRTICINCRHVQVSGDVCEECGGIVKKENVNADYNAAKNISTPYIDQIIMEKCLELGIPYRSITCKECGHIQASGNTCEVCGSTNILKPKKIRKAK

T7: Cas-alpha 10 variant G81E (synthetic construct, UniProt P0DW62 SEQ:1-497)
T7 chain: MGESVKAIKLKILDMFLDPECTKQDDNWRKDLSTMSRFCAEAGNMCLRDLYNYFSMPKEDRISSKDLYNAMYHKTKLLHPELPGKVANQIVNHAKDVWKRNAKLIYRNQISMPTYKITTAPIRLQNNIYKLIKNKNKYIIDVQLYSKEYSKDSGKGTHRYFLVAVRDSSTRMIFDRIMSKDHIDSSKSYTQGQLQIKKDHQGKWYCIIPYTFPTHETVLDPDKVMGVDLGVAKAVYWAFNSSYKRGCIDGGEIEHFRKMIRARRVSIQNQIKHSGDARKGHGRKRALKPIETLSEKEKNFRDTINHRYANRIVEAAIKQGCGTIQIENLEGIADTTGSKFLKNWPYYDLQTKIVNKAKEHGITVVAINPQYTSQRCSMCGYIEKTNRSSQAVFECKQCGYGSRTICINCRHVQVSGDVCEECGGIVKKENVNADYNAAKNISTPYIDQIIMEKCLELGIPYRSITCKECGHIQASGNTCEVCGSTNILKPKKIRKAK


Assays:
[1] = biological target: T1, Cas-alpha 10 variant …; experiment: cell_activity; PAM GTTC; 37 C overnight; settings: tags: SV40 NLS
Description: (§1) K85Q was also predicted with AlphaFold to be involved in PAM recognition. Therefore, it was converted back to a K residue for M45S+F54D+G81E+K85Q+G470D (SEQ ID NO: 50) and T34E+M45S+F54D+G81E+K85Q+G470D (SEQ ID NO: 54) and re-tested using two ADE2 target sites. Testing was performed as described above and fold improvement in targeted DNA cleavage was calculated as described above, relative to the original protein.

[2] = biological target: T2, Cas-alpha 10 variant …; experiment: cell_activity; PAM GTTC; 37 C overnight; settings: tags: SV40 NLS; chain copies: 2
Description: as §1

[3] = biological target: T3, Cas-alpha 10 base variant; experiment: cell_activity; PAM GTTC; 37 C overnight; settings: tags: SV40 NLS; chain copies: 2
Description: as §1

[4] = biological target: T4, Cas-alpha 10 variant …; experiment: cell_activity; PAM GTTC; 37 C overnight; settings: tags: SV40 NLS; chain copies: 2
Description: as §1

[5] = biological target: T5, Cas-alpha 10 variant …; experiment: cell_activity; PAM GTTC; 37 C overnight; settings: tags: SV40 NLS; chain copies: 2
Description: as §1

[6] = biological target: T6, Cas-alpha 10 wild type (Cas12f); experiment: cell_activity; PAM GTTC; maize, 3x4 hr 45 C; settings: tags: SV40 NLS; chain copies: 2
Description: (§2) The resulting T-DNA was then placed into LBA4404, a thymine auxotrophic strain of Agrobacterium tumefaciens, containing Vir9, a separate plasmid encoding the Bo542 virulence genes (US20170121722A1 and WO 2017/078836). The resulting Agrobacterium strain was then used to transform nine-to-ten-day old immature maize embryos (approximately 2 mm in size) by submersion in 700A liquid media containing the strain at an optical density (OD) of 0.4 to 2.0 at 550 nm for 5 min. and then removed from the media and placed on solid co-cultivation medium overnight at 21° C. in the dark. Following T-DNA delivery, embryos are transferred to resting media, 13266R, and grown in the dark at 28° C. for 5-7 days. Next, coleoptiles were removed, and embryos transferred to selection media for 11-16 days and kept in the dark at 28° C. They were then moved to maturation media and incubated for 14-25 days in the dark at 28° C. and then subject to light for 2-5 days. Next, they were moved to rooting media and incubated at 26-28° C. under light for 14-28 days refreshing media as needed. To examine Cas-alpha nuclease-guide RNA activity, transformed tissue was incubated at 28° C., standard for Agrobacterium transformation, or at a range of temperatures lower or higher than 28° C.
(§3) In a third study, the efficiency of targeted mutagenesis of Cas-alpha 10 endonuclease variants, SEQ ID NOs:14, 48, 60, and 157, were compared when tested with two sgRNA recognition domains, SEQ ID NOs:61 and 327, at two target sites, MS26 and D8. Experiments were carried-out in Zea mays using Agrobacterium (Agro) transformation as described in Example 2. Two temperature regimens were performed. The first subjected Agro transformed embryos (once per day) to 45° C. for 4 hrs on days 3, 4, and 5 (3×4 hr 45° C.) after infection and the second to a continuous incubation at 37° C. on days 1-3 (1-3d 37° C.) following infection. For both regimens, embryos were placed at 28° C. before and after temperature treatment. […]

[7] = biological target: T7, Cas-alpha 10 variant G81E; experiment: cell_activity; PAM GTTC; maize, 3x4 hr 45 C; settings: tags: SV40 NLS; chain copies: 2
Description: as §2, §3

Binder	activity [1]	activity [2]	activity [3]	activity [4]	activity [5]	activity [6]	activity [7]
sgRNA ADE2-CR1 ; ADE2-CR1 target (ssRNA ; dsDNA) RNA: AUUUACUCUGUUUCGCGCGCCAGGGCAGUUAGGUGCCCUAAAAGAGCGAAGUGGCCGAAAGGAAAGGCUAACGCUUCUCUAACGCUACGGCGACCUUGGCGAAAUGCCAUCAAUACCACGCGGCCCGAAAGGGUUCGCGCGAAACUGAGUAAUGAAAGUCGCAUCUUGCGUAAGCGCGUGGAUUGAAACCUACACUAAAGAAUCUUCAA DNA 1: GTTCCTACACTAAAGAATCTTCAA DNA 2: TTGAAGATTCTTTAGTGTAGGAAC	45.4 % red yeast	7.48 % red yeast	2.76 % red yeast	64.5 % red yeast	5.19 % red yeast	–	–
sgRNA MS26 (recognition domain SEQ 327) ; MS26 target (ssRNA ; dsDNA) RNA: GUUUCGCGCGCCAGGGCAGUUAGGUGCCCUAAAAGAGCGAAGUGGCCGAAAGGAAAGGCUAACGCUUCUCUAACGCUACGGCGACCUUGGCGAAAUGCCAUCAAUACCACGCGGCCCGAAAGGGUUCGCGCGAAACGAAAUAAGCGCGUGGAUUGAAACAAGUUCACGGCGUUCCAGGC DNA 1: GTTCAAGTTCACGGCGTTCCAGGC DNA 2: GCCTGGAACGCCGTGAACTTGAAC	–	–	–	–	–	4.67 % targeted mutagenesis	15.5 % targeted mutagenesis

Source: patent US20260218147, “CAS ENDONUCLEASE AND GUIDE RNA VARIANTS WITH IMPROVED EFFICIENCY” (PIONEER HI-BRED INTERNATIONAL, INC., published 2026)
